Biological target: the molecule itself
Experiment: cryo-EM structure

B1: human GPR156 (receptor)
chain: MEPEINCSELCDSFPGQELDRRPLHDLCKTTITSSHHSSKTISSLSPVLLGIVWTFLSCGLLLILFFLAFTIHCRKNRIVKMSSPNLNIVTLLGSCLTYSSAYLFGIQDVLVGSSMETLIQTRLSMLCIGTSLVFGPILGKSWRLYKVFTQRVPDKRVIIKDLQLLGLVAALLMADVILLMTWVLTDPIQCLQILSVSMTVTGKDVSCTSTSTHFCASRYSDVWIALIWGCKGLLLLYGAYLAGLTGHVSSPPVNQSLTIMVGVNLLVLAAGLLFVVTRYLHSWPNLVFGLTSGGIFVCTTTINCFIFIPQLKQWKAFEEENQTIRRMAKYFSTPNKSFHTQYGEEENCHPRGEKSSMERLLTEKNAVIESLQEQVNNAKEKIVRLMSAECTYDLPEGAAPPASSPNKDVQAVASVHTLAAAQGPSGHLSDFQNDPGMAARDSQCTSGPSSYAQSLEGPGKDSSFSPGKEEKISDSKDFSDHLDSGCSQKPWTEQSLGPERGDQVPMNPSQSLLPERGGSDPQRQRHLENSEEPPERRSRVSSVIREKLQEVLQDLGLGPEASLSTAPSCHQQTWKNSAAFSPQKMPLSKELGFSPYMVRRRRAAQRARSHFPGSAPSSVGHRANRTVPGAHSRLHVQNGDSPSLAPQTTDSRVRRPSSRKPSLPSDPQDRPGTLEGSKQSQTEPEGARGSKAAFLRQPSGSGRAPSPAAPCLSKASPDLPEQWQLWPPVPSGCASLSSQHSYFDTESSSSDEFFCRCHRPYCEICFQSSSDSSDSGTSDTDPEPTGGLASWEKLWARSKPIVNFKDDLKPTLV
- stoichiometry N: 2
